{"source": "patent US20200055896", "key": {"[1]": {"test_system": "aP probe: FGF21-based peptide with D-alanine at P2 (VaPSQG)"}, "[2]": {"test_system": "GP probe: fluorescence-quenched peptide of the region flanking the C-terminal human FGF21 cleavage site (VGPSQG)"}}}
{"substance": "FAP in human serum", "values": [{"measurement": "cleavage of the aP probe in immunodepleted human serum", "setting": "[1]", "result": "signal is lost after FAP immunodepletion from human serum, but not in control IgG-immunodepleted serum"}]}
{"substance": "Human DPPII/DPP7 (3438-SE)", "values": [{"measurement": "cleavage of fluorescence-quenched peptide (FRET-quench assay), peptidase at 2.5 µg/ml", "setting": "[1]", "result": "did not exhibit an ability to cleave the aP probe"}]}
{"substance": "PREP in mouse plasma", "values": [{"measurement": "cleavage of the GP probe in mouse plasma, with cpd60 and KYP-2047", "setting": "[2]", "result": "PREP has a smaller but significant contribution"}]}
